These results are taken from article doi:10.1101/498428.

Holding throughout (test): native gel or EMSA
Test [1] has as its target His-Halo-PRDM9^Cst ZnF1-11 (Mus musculus castaneus (CAST/EiJ strain)).
For test [2], the target named is His-MBP-eYFP-PRDM9^Cst ZnF (Mus musculus castaneus (CAST/EiJ strain)).
The target in test [3] is His-MBP-eYFP-PRDM9^Dom2 ZnF (Mus musculus domesticus (C57BL/6J strain)).
Test [4] addresses His-PRDM9^Cst ZnF1-11 (Mus musculus castaneus (CAST/EiJ strain)).
The target in test [5] is His-PRDM9^Cst ZnF2-6 (Mus musculus castaneus (CAST/EiJ strain)).
The target of test [6] is His-PRDM9^Cst ZnF2-8 (Mus musculus castaneus (CAST/EiJ strain)).
Test [7] deals with His-PRDM9^Cst ZnF (Mus musculus castaneus (CAST/EiJ strain)).
Test [8] concerns the target His-eYFP-PRDM9^Cst (full-length PRDM9^Cst) (Mus musculus castaneus (CAST/EiJ strain)).
For test [9], the target named is His-eYFP-PRDM9^Cst ZnF1-11 (Mus musculus castaneus (CAST/EiJ strain)).
For test [10], the target named is His-eYFP-PRDM9^Cst ZnF2-11 (Mus musculus castaneus (CAST/EiJ strain)).
The target in test [11] is His-eYFP-PRDM9^Cst ZnF (Mus musculus castaneus (CAST/EiJ strain)).

In turn, “His-Halo-PRDM9^Cst ZnF1-11 (domain or fragment)” came in with a stoichiometry N in [1] of 3.

“His-MBP-eYFP-PRDM9^Cst ZnF (domain or fragment)” returned a stoichiometry N in test [2] of 3.

The substance “His-MBP-eYFP-PRDM9^Dom2 ZnF (domain or fragment)” displayed a stoichiometry N in [3] of 3.

Consider “His-PRDM9^Cst ZnF1-11 (domain or fragment)”, for which the stoichiometry N in [4] came to 3.

The substance “His-PRDM9^Cst ZnF2-6 (domain or fragment)” came in with a stoichiometry N in test [5] of 3.

“His-PRDM9^Cst ZnF2-8 (domain or fragment)” registered a stoichiometry N in test [6] of 3.

His-PRDM9^Cst ZnF (domain or fragment) displayed a stoichiometry N in [7] of 3.

On to “His-eYFP-PRDM9^Cst (full-length PRDM9^Cst) (natural protein)”, for which the stoichiometry N in [8] was 3.

“His-eYFP-PRDM9^Cst ZnF1-11 (domain or fragment)” yielded a stoichiometry N in test [9] of 3.

Take “His-eYFP-PRDM9^Cst ZnF2-11 (domain or fragment)”: the stoichiometry N in test [10] stood at 3.

In [11], “His-eYFP-PRDM9^Cst ZnF (domain or fragment)” returned a stoichiometry N of 3.

Usually stoichiometry N stands for the number of molecules, sites or subunits per partner or assembly.
